In patent US9060970B2, “Bridge-helix cap: target and method for inhibition of bacterial RNA polymerase” (priority 2011, dated 2015):
Values after ≈ are worked out from the molar mass of the structure shown. “Also recorded” adds a separate entry of the source. Marks after values point to notes of the source that are not given here.

How the values were obtained:
[1] = system: E. coli D21f2tolC; experiment: Spontaneous resistance frequency by plating on LB agar containing inhibitor; format: cell-based, Escherichia coli; conditions: LB agar, each compound at 4×MIC, colonies counted after 24 h at 37° C.
Description: Sal-Resistant Mutants Map to RNAP-Subunit Genes. To determine whether Sal kills bacteria by inhibiting RNAP, spontaneous Sal-resistant mutants were isolated, and genes for RNAP subunits in Sal-resistant mutants were PCR-amplified and sequenced (FIG. 3A). Spontaneous Sal-resistant mutants were isolated by plating high-density cultures of E. coli D21f2tolC (˜3×10^9 cells per plate) on agar containing Sal and identifying rare resistant colonies (FIG. 3B). For each Sal-resistant mutant, genomic DNA was prepared, and the genes for the largest RNAP subunit and the second-largest RNAP subunit—rpoC encoding RNAP β′ subunit and rpoB encoding RNAP β subunit were PCR-amplified and sequenced (FIG. 3C).
Co-Administration of Sal and Rifampin Reduces Spontaneous Resistance to Undetectable Levels.
Co-Administration of Sal and CBR703 Reduces Spontaneous Resistance to Undetectable Levels.
(§1) Isolation of Sal-Resistant Mutants: Spontaneous Sal-Resistant Mutants. E. coli D21f2tolC (6) was cultured to saturation in 5 ml LB broth (7) at 37° C., cultures were centrifuged, and cell pellets (˜3×10^9 cells) were re-suspended in 50 μl LB broth and plated on LB agar (7) containing 1.2 μg/ml Sal (a concentration four times the minimal concentration required to prevent growth of wild-type cells under these conditions), and incubated 24-48 h at 37° C. Sal-resistant mutants were identified by the ability to form colonies on this medium and were confirmed by re-streaking on the same medium.

[2] = system: E. coli D21f2tolC; experiment: Broth microdilution MIC, wild-type rpoC and rpoB; format: cell-based, Escherichia coli; conditions: LB broth, 16 h at 37° C., lowest concentration inhibiting growth by 95%
Method: (§2) Quantitation of Resistance to Sal. Resistance to Sal was quantified by performing broth microdilution assays. Single colonies were inoculated into 3 ml LB broth, and incubated 3-6 h at 37° C. with shaking. Diluted aliquots (2×10^4 cells in 98 μl LB broth; concentrations determined using OD600=1 for 10^9 cells) were dispensed into wells of a 96-well plate, were supplemented with 2 μl of a 2-fold dilution series of Sal in methanol (final concentrations of […], 0.390, 0.195, 0.0975, 0.0488, 0.0244, 0.0122, and 0.00609 μg/ml) or 2 μl of a solvent blank, and were incubated 16 h at 37° C. with shaking. The minimum inhibitory concentration (MIC) was defined as the lowest tested concentration of Sal that inhibited bacterial growth by 95%.
(§3) Quantitation of Cross-Resistance to Rifampin and CBR703. Cross-resistance levels were determined analogously to resistance levels, using 0.12-0.78 μg/ml of rifampin (Sigma, Inc.) and 0.39-25 μg/ml of CBR703 (Maybridge, Inc.).

[3] = system: Sal-resistant mutants of E. coli D21f2tolC (rpoC / rpoB substitutions); experiment: Broth microdilution resistance / cross-resistance levels of spontaneous Sal-resistant mutants; format: cell-based, Escherichia coli; conditions: for cross-resistance of Sal-resistant mutants (in words): broth microdilution (Table 4); for cross-resistance level (MIC/MICwild-type): values <1 = hypersensitivity
Method: as §1, §2, §3

[4] = biological target: E. coli RNAP, β′ subunit 763 Phe→Cys (Escherichia coli) (UniProt P0A8T7); experiment: cell-based or functional assay
[5] = biological target: E. coli RNAP, β subunit 677 Asn→His (Escherichia coli) (UniProt P0A8T7); experiment: cell-based or functional assay
[6] = biological target: E. coli RNAP, β subunit 677 Asn→Lys (Escherichia coli) (UniProt P0A8T7); experiment: cell-based or functional assay
[7] = biological target: E. coli RNAP, β′ subunit 748 Ala→Glu (Escherichia coli) (UniProt P0A8T7); experiment: cell-based or functional assay
[8] = biological target: E. coli RNAP, β′ subunit 738 Arg→Cys (Escherichia coli) (UniProt P0A8T7); experiment: cell-based or functional assay
[9] = biological target: E. coli RNAP, β′ subunit 782 Gly→Cys (Escherichia coli) (UniProt P0A8T7); experiment: cell-based or functional assay
[10] = biological target: E. coli RNAP, β′ subunit 738 Arg→Pro (Escherichia coli) (UniProt P0A8T7); experiment: cell-based or functional assay
[11] = biological target: E. coli RNAP, β subunit 526 His→Asp (Escherichia coli) (UniProt P0A8T7); experiment: cell-based or functional assay
[12] = biological target: E. coli RNAP, β′ subunit 783 Leu→Arg (Escherichia coli) (UniProt P0A8T7); experiment: cell-based or functional assay
[13] = biological target: E. coli RNAP, β′ subunit 779 Ala→Val (Escherichia coli) (UniProt P0A8T7); experiment: cell-based or functional assay
[14] = biological target: E. coli RNAP, β subunit 516 Asp→Val (Escherichia coli) (UniProt P0A8T7); experiment: cell-based or functional assay
[15] = biological target: E. coli RNAP, β′ subunit 775 Ser→Ala (Escherichia coli) (UniProt P0A8T7); experiment: cell-based or functional assay
[16] = biological target: E. coli RNAP, β subunit 561 Ile→Ser (Escherichia coli) (UniProt P0A8T7); experiment: cell-based or functional assay
[17] = biological target: E. coli RNAP, β′ subunit 690 Asn→Asp (Escherichia coli) (UniProt P0A8T7); experiment: cell-based or functional assay
[18] = biological target: E. coli RNAP, β subunit 531 Ser→Leu (Escherichia coli) (UniProt P0A8T7); experiment: cell-based or functional assay
[19] = biological target: Escherichia coli RNA polymerase with wild-type rpoC and wild-type rpoB, in E. coli D21f2tolC (Escherichia coli) (UniProt P0A8T7); experiment: cell-based or functional assay
[20] = biological target: E. coli RNAP, β′ subunit 779 Ala→Thr (Escherichia coli) (UniProt P0A8T7); experiment: cell-based or functional assay
[21] = biological target: E. coli RNAP, β′ subunit 738 Arg→Ser (Escherichia coli) (UniProt P0A8T7); experiment: cell-based or functional assay
[22] = biological target: E. coli RNAP, β subunit 526 His→Tyr (Escherichia coli) (UniProt P0A8T7); experiment: cell-based or functional assay
[23] = biological target: E. coli RNAP, β′ subunit 738 Arg→His (Escherichia coli) (UniProt P0A8T7); experiment: cell-based or functional assay
[24] = biological target: E. coli RNAP, β′ subunit 758 Pro→Ser (Escherichia coli) (UniProt P0A8T7); experiment: cell-based or functional assay
[25] = biological target: E. coli RNAP, β subunit 680 Leu→Met (Escherichia coli) (UniProt P0A8T7); experiment: cell-based or functional assay
[26] = biological target: E. coli RNAP, β subunit 675 Asp→Ala (Escherichia coli) (UniProt P0A8T7); experiment: cell-based or functional assay
[27] = biological target: E. coli RNAP, β subunit 569 Ile→Ser (Escherichia coli) (UniProt P0A8T7); experiment: cell-based or functional assay
[28] = biological target: E. coli RNAP, β subunit 665 Ala→Glu (Escherichia coli) (UniProt P0A8T7); experiment: cell-based or functional assay
[29] = biological target: E. coli RNAP, β′ subunit 758 Pro→Thr (Escherichia coli) (UniProt P0A8T7); experiment: cell-based or functional assay
[30] = biological target: E. coli RNAP, β′ subunit 697 Met→Val (Escherichia coli) (UniProt P0A8T7); experiment: cell-based or functional assay
[31] = biological target: E. coli RNAP, β′ subunit 780 Arg→Cys (Escherichia coli) (UniProt P0A8T7); experiment: cell-based or functional assay

CO[C@H]1/C=C/O[C@@]2(C)Oc3c(C)c(O)c4c(O)c(c(/C=N/N5CCN(C)CC5)c(O)c4c3C2=O)NC(=O)/C(C)=C\C=C\[C@H](C)[C@H](O)[C@@H](C)[C@@H](O)[C@@H](C)[C@H](OC(C)=O)[C@@H]1C [rifampin]
spontaneous resistance frequency [1]: 1×10^−8 | spontaneous resistance frequency ([1]; listed as Rif): 1 × 10^−8 | MIC ([2]; Escherichia coli, D21F2TOLC): 0.098 µg/mL (≈ 0.119 µM) | cross-resistance of Sal-resistant mutants (in words) [3]: not cross-resistant; also recorded: no cross-resistance | hypersensitivity of Sal-resistant mutants ([3]; {}): 2 fold

salinamide A (peptide)
resistance level (MIC/MICwild-type) (MIC/MICwild-type) [4]: 16 | resistance level (MIC/MICwild-type) (MIC/MICwild-type) [5]: > 16 | resistance level (MIC/MICwild-type) (MIC/MICwild-type) [6]: > 16 | resistance level (MIC/MICwild-type) (MIC/MICwild-type) [7]: 16 | resistance level (MIC/MICwild-type) (MIC/MICwild-type) [8]: > 16 | resistance level (MIC/MICwild-type), plasmid-borne rpoC (MIC/MICwild-type) [9]: 8 | resistance level (MIC/MICwild-type) (MIC/MICwild-type) [10]: > 16 | cross-resistance level (MIC/MICwild-type) to Sal (MIC/MICwild-type) [11]: 1 | resistance level (MIC/MICwild-type) (MIC/MICwild-type) [12]: > 16 | resistance level (MIC/MICwild-type) (MIC/MICwild-type) [13]: > 16 | cross-resistance level (MIC/MICwild-type) to Sal (MIC/MICwild-type) [14]: 1 | resistance level (MIC/MICwild-type) (MIC/MICwild-type) [15]: 8 | resistance level (MIC/MICwild-type), plasmid-borne rpoB (MIC/MICwild-type) [16]: 2 | resistance level (MIC/MICwild-type) (MIC/MICwild-type) [17]: 16 | cross-resistance level (MIC/MICwild-type) to Sal (MIC/MICwild-type) [18]: 1 | MIC (broth microdilution, D21f2tolC pRL663 and D21f2tolC pRL706 derivatives) [19]: 0.098 µg/ml | MIC (broth microdilution, E. coli D21f2tolC) [19]: 0.024 µg/mL | resistance level (MIC/MICwild-type) (MIC/MICwild-type) [20]: > 16 | resistance level (MIC/MICwild-type) (MIC/MICwild-type) [21]: > 16 | cross-resistance level (MIC/MICwild-type) to Sal (MIC/MICwild-type) [22]: 1 | resistance level (MIC/MICwild-type) (MIC/MICwild-type) [23]: > 16 | resistance level (MIC/MICwild-type) (MIC/MICwild-type) [24]: 16 | resistance level (MIC/MICwild-type), plasmid-borne rpoB (MIC/MICwild-type) [25]: 4 | resistance level (MIC/MICwild-type) (MIC/MICwild-type) [26]: > 16 | resistance level (MIC/MICwild-type) (MIC/MICwild-type) [27]: > 16 | resistance level (MIC/MICwild-type), plasmid-borne rpoB (MIC/MICwild-type) [28]: 8 | resistance level (MIC/MICwild-type), plasmid-borne rpoC (MIC/MICwild-type) [29]: 4 | resistance level (MIC/MICwild-type) (MIC/MICwild-type) [30]: > 16 | resistance level (MIC/MICwild-type) (MIC/MICwild-type) [31]: > 16 | resistance level (MIC/MICwild-type), plasmid-borne rpoC (MIC/MICwild-type) [31]: 8

ONC(=Nc1ccccc1)c1cccc(C(F)(F)F)c1 [CBR703]
spontaneous resistance frequency [1]: 2×10^−10 | MIC with wild-type rpoC and wild-type rpoB [2]: 6.25 µg/mL | cross-resistance level (MIC/MICwild-type) ([3]; Sal-resistant mutant rpoB (RNAP β subunit) 569 Ile→Ser): 1 | cross-resistance level (MIC/MICwild-type) ([3]; Sal-resistant mutant rpoB (RNAP β subunit) 675 Asp→Ala): ≦0.25 | cross-resistance level (MIC/MICwild-type) ([3]; Sal-resistant mutant rpoB (RNAP β subunit) 677 Asn→His): 1 | cross-resistance level (MIC/MICwild-type) ([3]; Sal-resistant mutant rpoB (RNAP β subunit) 677 Asn→Lys): ≦0.25 | cross-resistance level (MIC/MICwild-type) ([3]; Sal-resistant mutant rpoC (RNAP β′ subunit) 690 Asn→Asp): ≦0.25^b | cross-resistance level (MIC/MICwild-type) ([3]; Sal-resistant mutant rpoC (RNAP β′ subunit) 697 Met→Val): 0.5 | cross-resistance level (MIC/MICwild-type) ([3]; Sal-resistant mutant rpoC (RNAP β′ subunit) 738 Arg→Cys): ≦0.25 | cross-resistance level (MIC/MICwild-type) ([3]; Sal-resistant mutant rpoC (RNAP β′ subunit) 738 Arg→Pro): ≦0.25 | cross-resistance level (MIC/MICwild-type) ([3]; Sal-resistant mutant rpoC (RNAP β′ subunit) 738 Arg→Ser): 1 | cross-resistance level (MIC/MICwild-type) ([3]; Sal-resistant mutant rpoC (RNAP β′ subunit) 748 Ala→Glu): ≦0.25 | cross-resistance level (MIC/MICwild-type) ([3]; Sal-resistant mutant rpoC (RNAP β′ subunit) 763 Phe→Cys): ≦0.25 | cross-resistance level (MIC/MICwild-type) ([3]; Sal-resistant mutant rpoC (RNAP β′ subunit) 779 Ala→Thr): 1 | cross-resistance level (MIC/MICwild-type) ([3]; Sal-resistant mutant rpoC (RNAP β′ subunit) 779 Ala→Val): ≦0.25 | cross-resistance level (MIC/MICwild-type) ([3]; Sal-resistant mutant rpoC (RNAP β′ subunit) 780 Arg→Cys): 0.5 | cross-resistance of Sal-resistant mutants (in words) [3]: no cross-resistance
